The record followed here is paper PMC5624926.

Test [1] concerns the target dCD22_(20–687) (human) (UniProt P20273). In words: BLI; Octet RED96; CD22_(20–687) forms loaded on Ni-NTA biosensors; Fab in solution 500 to 62.5 nM; 1x PBS pH 7.4, 0.002% Tween, 0.01% BSA; 1:1 fit; triplicate.
For test [2], the target named is CD22_(20–687)F (human) (UniProt P20273). The test is described as above.
The target of test [3] is dCD22_(20–687) (human) (UniProt P20273). In words: ITC; Auto-ITC200; 5 μM CD22 in the cell, 50 μM Fab in the syringe; 35 °C; triplicate.
Test [4] deals with CD22_(20–687)F (human) (UniProt P20273). Described as above.

B1: epratuzumab Fab (Fab, V domains shown)
VH: QVQLVQSGAEVKKPGSSVKVSCKASGYTFTSYWLHWVRQAPGQGLEWIGYINPRNDYTEYNQNFKDKATITADESTNTAYMELSSLRSEDTAFYFCARRDITTFYWGQGTTVTVSS
VL: DIQLTQSPSSLSASVGDRVTMSCKSSQSVLYSANHKNYLAWYQQKPGKAPKLLIYWASTRESGVPSRFSGSGSGTDFTLTISSLQPEDIATYYCHQYLSSWTFGGGTKLEIK
Consider B1, for which the Kd was 24 nM in test [1], 327 nM in test [2], 58 nM in test [3] and 188 nM in test [4].

The term Kd denotes the concentration at which binding is half-saturated. Low values mean a tighter complex, high ones a looser complex.
